Reference: publication PMC11315935, “Multi-layered heterochromatin interaction as a switch for DIM2-mediated DNA methylation” (Nature Communications, 2024)
Where a chain is given by its changes, count along the chain named. Numbers in names are those of the source.

B1: DIM2 (Defective-In-Methylation-2) N-terminal fragment, residues 1-1242, wild type (domain or fragment, Neurospora crassa, UniProt Q3Y3Z1 1-1242, looked up)
chain: MDSPDRSHGGMFIDVPAETMGFQEDYLDMFASVLSQGLAKEGDYAHHQPLPAGKEECLEPIAVATTITPSPDDPQLQLQLELEQQFQTESGLNGVDPAPAPESEDEADLPDGFSDESPDDDFVVQRSKHITVDLPVSTLINPRSTFQRIDENDNLVPPPQSTPERVAVEDLLKAAKAAGKNKEDYIEFELHDFNFYVNYAYHPQEMRPIQLVATKVLHDKYYFDGVLKYGNTKHYVTGMQVLELPVGNYGASLHSVKGQIWVRSKHNAKKEIYYLLKKPAFEYQRYYQPFLWIADLGKHVVDYCTRMVERKREVTLGCFKSDFIQWASKAHGKSKAFQNWRAQHPSDDFRTSVAANIGYIWKEINGVAGAKRAAGDQLFRELMIVKPGQYFRQEVPPGPVVTEGDRTVAATIVTPYIKECFGHMILGKVLRLAGEDAEKEKEVKLAKRLKIENKNATKADTKDDMKNDTATESLPTPLRSLPVQVLEATPIESDIVSIVSSDLPPSENNPPPLTNGSVKPKAKANPKPKPSTQPLHAAHVKYLSQELVNKIKVGDVISTPRDDSSNTDTKWKPTDTDDHRWFGLVQRVHTAKTKSSGRGLNSKSFDVIWFYRPEDTPCCAMKYKWRNELFLSNHCTCQEGHHARVKGNEVLAVHPVDWFGTPESNKGEFFVRQLYESEQRRWITLQKDHLTCYHNQPPKPPTAPYKPGDTVLATLSPSDKFSDPYEVVEYFTQGEKETAFVRLRKLLRRRKVDRQDAPANELVYTEDLVDVRAERIVGKCIMRCFRPDERVPSPYDRGGTGNMFFITHRQDHGRCVPLDTLPPTLRQGFNPLGNLGKPKLRGMDLYCGGGNFGRGLEEGGVVEMRWANDIWDKAIHTYMANTPDPNKTNPFLGSVDDLLRLALEGKFSDNVPRPGEVDFIAAGSPCPGFSLLTQDKKVLNQVKNQSLVASFASFVDFYRPKYGVLENVSGIVQTFVNRKQDVLSQLFCALVGMGYQAQLILGDAWAHGAPQSRERVFLYFAAPGLPLPDPPLPSHSHYRVKNRNIGFLCNGESYVQRSFIPTAFKFVSAGEGTADLPKIGDGKPDACVRFPDHRLASGITPYIRAQYACIPTHPYGMNFIKAWNNGNGVMSKSDRDLFPSEGKTRTSDASVGWKRLNPKTLFPTVTTTSNPSDARMGPGLHWDEDRPYTVQEMRRAQGYLDEEVLVGRTTDQWKLVGNSVSRHMALAIGLKFREAWLGTLYD
B2: heterochromatin protein 1 (HP1), full length, residues 1-266 (natural protein, Neurospora crassa, UniProt Q1K612 1-266, looked up)
chain: MPYDPSALSDEEAASSVELDTRSATSSSKKQSRDKKSVKYTIPEPEDFEDEEQNGDGADEGGEDDEEGDEEEEDVYVVEKILDHMLNDDNEPLFLVKWEGYEKKSDQTWEPEDTLIEGASERLKEYFTKIGGREKIFEASAAAQKIKKRGRPSSNSGTPQASSNKRSRKNGDHPLNSEEPQTAKNAAWKPPAGSWEEHIAQLDACEDEDTHKLMVYLTWKNGHKTQHTTDVIYKRCPQKMLQFYERHVRIIKRDPDSEDREGSVSQ
notes: HP1, Neurospora crassa, UniProt Q1K612, residues 1-266, synthetic codon-optimised gene; Homodimer through its chromo shadow domains in the cryo-EM structures; only the CSDs (K189-I251, C191-I251) were traced; also called HP1-I; HP1-II; source: E. coli BL21 (DE3) RIL, purified (Ni-NTA, heparin, TEV cleavage, second Ni-NTA, SEC); not shown: His6, N-terminal, cleaved; MBP, N-terminal, cleaved
B3: DIM2 (residues 1-1242) L134A/L139A double mutant (domain or fragment, Neurospora crassa, UniProt Q3Y3Z1 1-1242, looked up)
chain: B1 chain with L134A, L139A
B4: DIM2 (residues 1-1242) R1104A mutant (domain or fragment, Neurospora crassa, UniProt Q3Y3Z1 1-1242, looked up)
chain: B1 chain with R1104A

Legend:
[1] = molecular target: histone H3 peptide (residues 1-24) with H3K9me3, plus a C-terminal tryptophan (UniProt P68431 2-25, trimethyl-lysine at K9); assay: cell-based or functional assay
[2] = molecular target: B1; assay: SEC; analytical SEC, 1.0 µM DIM2 and/or 2.5 µM HP1 on Superdex 200 increase 10/300 GL, 20 mM Tris-HCl pH 7.5, 100 mM NaCl, 5% glycerol, 5 mM DTT; fractions on SDS-PAGE; conditions: both partners purified
[3] = molecular target: B3; assay: as above; conditions: both partners purified
[4] = molecular target: B2; assay: cell-based or functional assay

Binder: B1
in vitro DNA methylation of a 36-mer duplex by DIM2 with HP1 and H3K9me3 peptide, against the DIM2-HP1 mixture [1]: ~90 fold

Binder: B2
binding result [2]: binds
binding result [3]: binds

Binder: B3
in vitro DNA methylation of (CTA)12/(TAG)12 duplex with HP1 and H3(1-24)K9me3 peptide; reduction against WT DIM2 [4]: 14 fold

Binder: B4
in vitro DNA methylation: activity-stimulation effect of HP1, reduction against WT DIM2 [4]: ~8 fold
thermal shift assay: change of the Tm of DIM2 on co-incubation with HP1 [4]: 2.5 °C
